Patent publication CN115368463A (HEFEI TIANGANG IMMUNOLOGY PHARMACEUTICAL CO LTD, dated 2022)

Tests used:
Nectin-4蛋白 = biological target: T1, Nectin-4蛋白 (Homo sapiens (Human), UniProt Q96NY8 32-510); test: flow cytometry on CHO-K1-Nectin-4 cells, antibody at 0.1-300 μg/mL, Alexa-647 anti-human Fc secondary antibody
T1 construct: also called PVRL4; CHO-K1-Nectin-4细胞
T1 sequence: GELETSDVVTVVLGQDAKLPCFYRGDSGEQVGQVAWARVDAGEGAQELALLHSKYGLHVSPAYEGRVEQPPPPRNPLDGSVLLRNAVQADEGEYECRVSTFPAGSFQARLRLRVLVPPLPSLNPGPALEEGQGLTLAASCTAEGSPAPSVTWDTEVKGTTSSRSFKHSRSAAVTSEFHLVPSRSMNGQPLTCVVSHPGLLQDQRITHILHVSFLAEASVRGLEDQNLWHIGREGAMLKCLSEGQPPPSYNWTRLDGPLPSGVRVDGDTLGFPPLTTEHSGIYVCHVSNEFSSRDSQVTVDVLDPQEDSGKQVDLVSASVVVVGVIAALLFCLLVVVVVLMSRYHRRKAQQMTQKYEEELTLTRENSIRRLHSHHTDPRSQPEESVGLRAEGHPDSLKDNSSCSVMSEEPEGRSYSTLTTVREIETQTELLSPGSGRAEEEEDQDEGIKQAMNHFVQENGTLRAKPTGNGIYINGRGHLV

CD27蛋白 = biological target: T2, CD27蛋白 (Homo sapiens (Human), UniProt P26842 20-260); test: flow cytometry on CHO-K1-CD27 cells, antibody at 0.1-300 μg/mL, Alexa-647 anti-human Fc secondary antibody
T2 construct: also called CHO-K1-CD27细胞; Jurkat-NFAT-lucia-CD27细胞
T2 sequence: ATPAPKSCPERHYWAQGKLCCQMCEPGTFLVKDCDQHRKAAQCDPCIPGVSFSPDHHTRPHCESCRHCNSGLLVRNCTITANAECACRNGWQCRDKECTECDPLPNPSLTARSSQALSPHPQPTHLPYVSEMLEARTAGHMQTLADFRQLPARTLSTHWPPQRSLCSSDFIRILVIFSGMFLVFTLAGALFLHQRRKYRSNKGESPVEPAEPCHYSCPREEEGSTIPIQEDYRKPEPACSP

binding result (Nectin-4蛋白): binds | binding result (CD27蛋白): binds
B1: 抗体CD27×Nectin-4 (bispecific antibody, human IgG1, kappa, L234A L235A)
scFv: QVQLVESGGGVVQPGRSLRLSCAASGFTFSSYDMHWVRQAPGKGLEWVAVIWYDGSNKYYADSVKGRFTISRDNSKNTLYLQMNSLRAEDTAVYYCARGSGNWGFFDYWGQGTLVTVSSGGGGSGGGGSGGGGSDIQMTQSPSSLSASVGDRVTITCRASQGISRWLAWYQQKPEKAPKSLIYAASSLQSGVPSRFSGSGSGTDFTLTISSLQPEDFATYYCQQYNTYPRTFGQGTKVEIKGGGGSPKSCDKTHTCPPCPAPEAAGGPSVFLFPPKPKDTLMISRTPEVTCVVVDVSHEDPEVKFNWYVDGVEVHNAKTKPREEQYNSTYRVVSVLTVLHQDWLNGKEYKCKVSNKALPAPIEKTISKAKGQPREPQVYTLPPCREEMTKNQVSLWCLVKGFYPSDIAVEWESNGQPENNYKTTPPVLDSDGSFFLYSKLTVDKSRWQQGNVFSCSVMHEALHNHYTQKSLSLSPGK
heavy: EVQLVESGGGLVQPGGSLRLSCAASGFTFSSYNMNWVRQAPGKGLEWVSYISSSSSTIYYADSVKGRFTISRDNAKNSLSLQMNSLRDEDTAVYYCARAYYYGMDVWGQGTTVTVSSASTKGPSVFPLAPSSKSTSGGTAALGCLVKDYFPEPVTVSWNSGALTSGVHTFPAVLQSSGLYSLSSVVTVPSSSLGTQTYICNVNHKPSNTKVDKKVEPKSCDKTHTCPPCPAPEAAGGPSVFLFPPKPKDTLMISRTPEVTCVVVDVSHEDPEVKFNWYVDGVEVHNAKTKPREEQYNSTYRVVSVLTVLHQDWLNGKEYKCKVSNKALPAPIEKTISKAKGQPREPQVCTLPPSREEMTKNQVSLSCAVKGFYPSDIAVEWESNGQPENNYKTTPPVLDSDGSFFLVSKLTVDKSRWQQGNVFSCSVMHEALHNHYTQKSLSLSPGK
light: DIQMTQSPSSVSASVGDRVTITCRASQGISGWLAWYQQKPGKAPKFLIYAASTLQSGVPSRFSGSGSGTDFTLTISSLQPEDFATYYCQQANSFPPTFGGGTKVEIKRTVAAPSVFIFPPSDEQLKSGTASVVCLLNNFYPREAKVQWKVDNALQSGNSQESVTEQDSKDSTYSLSSTLTLSKADYEKHKVYACEVTHQGLSSPVTKSFNRGEC
notes: also called CD27×Nectin-4抗体; CD27×Nectin-4双特异抗体
